B1: KRT18 (parent)
chain: PQVRDWSHYFKIIEDLRAQIFANT

Variants of: B1
Assay: protein stability index of a GFP-peptide fusion (GPS, HEK-293T) (PSI 1-6); higher = more stable
Conditions: c terminus: a fixed tail appended
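Also: lentivirally expressed fusions sorted by FACS into six bins by GFP to DsRed ratio, PSI derived from sequencing read proportions per bin multiplied by bin number.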

Protein stability index, by site and new letter:
Q19: H 2.09; E 2.62; C 1.86; N 2.56; D 2.49; V 1.59; M 1.89; Y 1.65; L 1.79; S 2.67; P 1.97; G 2.34; T 2.8; W 2.39; A 2.05; F 1.7; R 2.45; K 2.12; I 1.42
R17: I 2.61; F 1.54; D 2.4; A 2.14; N 2.64; V 1.89; Q 2.19; P 2.15; M 2.12; E 2.61; Y 1.51; W 1.97; K 3.07; S 2.02; C 1.62; T 2.27; H 2.58; L 1.96; G 2.3
A22: C 1.9; M 2.37; H 2; N 2.53; I 2.5; D 2.49; K 2.1; L 1.45; E 2.12; G 2.51; F 1.8; P 2.4
A18: Y 1.77; M 1.81; Q 2.02; F 2.24; K 2.68; H 1.88; S 2.25; W 2.34; R 2.44; P 2.15; N 2.8; I 2.13; G 1.9; V 1.97; T 1.48; D 2.44; L 2.29; C 1.94; E 2.7
I13: V 2.87; T 2.54; Y 1.72; W 3.46
F21: H 2.4; K 2.98; I 1.91; S 2.32; E 2.98; P 2.15; Y 3.6; Q 2.46; R 2.33; V 2.39; A 2.83; C 1.97; T 1.97; M 2.16; G 2.52; D 3.27; N 2.46; W 1.84; L 2.7
E14: C 2.33; M 2.32; D 2.28; P 1.67; F 1.59; I 2.46; L 1.39; A 2; R 2.27; Q 2.64; S 2.26; H 2.69; Y 1.9; W 2.79; K 2.77; N 2.03; G 2; T 2; V 2.11
I20: Y 2.16; G 2.9; T 2.83; R 2.75; A 2.07; N 3.05; K 2.7; F 2.22; C 1.86; Q 2.09; M 2.15; V 2.08; L 2; E 2.86; H 1.89; D 2.59; P 1.91; W 1.62; S 2.17
L16: A 2.17; Q 2.47; N 2.62; W 2.05; G 2.32; C 1.7; E 2.63; I 2.03; T 2.09; V 1.96; D 2.22; H 2.13; P 2.38; Y 2.26; K 1.85; M 2.08; S 2.03; F 1.53; R 2.33
D15: G 2.16; Y 3.62; I 1.74; R 1.89; F 1.58; W 1.61; K 3.02; V 2.32; Q 1.71; T 1.78; H 1.57; P 1.4; E 2.28; N 2.1; A 2.47; M 2.87; S 2.09; L 2.69

Source: the supplement of paper PMC10567573
